Assay results from patent US20250263467A1 (VIR BIOTECHNOLOGY, published 2025).

Legend:
[1] = biological target: SARS-CoV-2 Spike protein on pseudotyped virus (SARS-CoV-2 (Wuhan-Hu-1), UniProt P0DTC2 14-1273); experiment: cell-based or functional assay
[2] = biological target: SARS-CoV-1 RBD (Sino Biological) (SARS-CoV-1, UniProt P59594 306-527); experiment: BLI (Octet), antibody on protein A sensors, RBD in solution
[3] = biological target: SARS-CoV-2 S protein (strain BetaCoV/Wuhan-Hu-1/2019) expressed on transfected cells (SARS-CoV-2 (Wuhan-Hu-1), UniProt P0DTC2 14-1273); experiment: flow cytometry, B cell supernatant on S-transfected ExpiCHO cells
[4] = biological target: SARS-CoV-2 RBD with a Strep Tag II (SARS-CoV-2, UniProt P0DTC2 331-550); experiment: BLI (Octet), RBD-Strep Tag II captured, antibody from B cell supernatant
[5] = biological target: His-tagged RBD of SARS-CoV-2 (SARS-CoV-2 (Wuhan-Hu-1), UniProt P0DTC2 331-550); experiment: BLI (Octet), His-tagged RBD on anti-HIS sensors, antibody in solution
[6] = biological target: SARS-CoV-2 RBD (residues 331-550 of spike from BetaCoV/Wuhan-Hu-1/2019, produced in house in Expi-CHO cells) (SARS-CoV-2 (Wuhan-Hu-1), UniProt P0DTC2 331-550); experiment: BLI (Octet), antibody on protein A sensors, RBD in solution

Row | Binder | binding result [2] | binding result [3] | further results
1 | S304 rIgG1 (antibody, V domains shown) VH: EVQLVESGGGLVQPGGSLRLSCAASGFTFSSYDMHWVRQTTGKGLEWVSTIGTAGDTYYPDSVKGRFTISREDAKNSLYLQMNSLRAGDTAVYYCARGDSSGYYYYFDYWGQGTLLTVSS VL: DIQMTQSPSSLSAAVGDRVTITCRASQSIGSYLNWYQQKPGKAPKLLIYAASSLQSGVPSRFSGSGSGTDFTLTISSLQPEDFAIYYCQQSYVSPTYTFGPGTKVDIK | binds |  | IC50, neutralization of SARS-CoV-2pp on DBT-ACE2 cells [1]: ~17 µg/mL
2 | SARS-CoV-2 S308-v1 (antibody, V domains shown) VH: QVQLVESGGGVVQPGRSLRLSCAASRFTFSSYGMHWVRQAPGKGLEWVAVIWHDGNNKHYGDSVKGRVTISRDNSKNTLYLQMTSLRAEDTAVYYCARAVTTFKGSGRARMRGMDVWGQGTTVTVSS VL: DIQLTQSPSFLSASVGDRVTITCRASQGINTYLAWYQQKPGKAPKLLIYAASTLQSGVPSRFSGSGSGTEFTLTISSLQPEDFATYYCQHLDTYPFTFGPGTKVDIK |  | binds | 
3 | SARS-CoV-2 S302 (antibody, V domains shown) VH: QVQLVESGGGVVQPGRSLRLSCAASGFTFSSYGMHWVRQAPGKGLEWVAVISYDGSNKYYADSVKGRFTISRDNSKNTLYLQMNSLRAEDTAVYYCAKDISSGWDRVFDYWGQGTLVTVSS VL: EILLTQSPGTLSLSPGERATLSCRTSQSVGSSYLAWYQQKPGQAPRLLIYAASSRAIGIPDRFSGSGSGTDFTLTISRLEPEDFAVYYCQQYGSSPWTFGQGTKVEIK |  | binds | 
4 | S315 rIgG1-LS (antibody, V domains shown) VH: EVQLVESGGGLVQPGGSLRLSCAASGFTFSNYWMTWVRQAPGKGLEWVANIKQDGSEKYYVDSVKGRFTISRDNAKNSLYLQMNSLRAEDTAVYYCARDLWWNDQAHYYGMDVWGQGTTVTVSS VL: SYELTQPPSVSVSPGQTARITCSGDAFPNQYAYWYQQKPGQAPVMLIYKDSERPSGIPERFFGSSSGTTVTLTIRGVQAEDEADYYCQSADSSGTVFGGGTKLTVL |  |  | IC50, neutralization of SARS-CoV-2pp on DBT-ACE2 cells (further assay) [1]: 25.1 µg/mL
5 | SARS-CoV-2 S303-v1 (antibody, V domains shown) VH: EVQLVESGGGLVKPGGSLRLSCAASGFTFLTYSMNWVRQTPGKRLQWVSAISGSGGATYYADSVKGRFTISRDNSKNTLYLQMNTVTADDTAIYFCARERDDIFPMGLNAFDIWGQGAMVIVSS VL: DIQMTQSPSTLSASVGDRVTITCRASQSISNWLAWYQQKPGKAPKLLIYKASSLESGVPSRFSGSGSGTEFTLTISSLQPDDSATYYCQQYDTYSWTFGQGTKVEIK |  | binds | binding result [4]: binds
6 | S303 rIgG1 (antibody, V domains shown) VH: EVQLVESGGGLVKPGGSLRLSCAASGFTFLTYSMNWVRQTPGKRLQWVSAISGSGGATYYADSVKGRFTISRDNSKNTLYLQMNTVTADDTAIYFCARERDDIFPMGLNAFDIWGQGAMVIVSS VL: DIQMTQSPSTLSASVGDRVTITCRASQSISNWLAWYQQKPGKAPKLLIYKASSLESGVPSRFSGSGSGTEFTLTISSLQPDDSATYYCQQYDTYSWTFGQGTKVEIK | binds |  | binding result [5]: binds; binding result [6]: binds
